From PMC4067180

Legend:
[1] = target: tektin A (S. purpuratus (endogenous in sperm flagella)); assay: co-sedimentation; Ribbons extracted with 0.5% Sarkosyl and urea (1-3 M; 1.75 M for the stoichiometry) in 10TEAD; the insoluble tektin filaments analysed by SDS-PAGE densitometry (Serva Blue) and immunoblotting
[2] = target: tektin B (S. purpuratus (endogenous in sperm flagella)); assay: as above

stoichiometry N [1]	stoichiometry N [2]	Substance
1		tektin B (natural protein)
1	1	tektin C (natural protein)
